PMC2756588

T1: Sla1-3, P32790
T1 sequence (P32790 344-424, looked up): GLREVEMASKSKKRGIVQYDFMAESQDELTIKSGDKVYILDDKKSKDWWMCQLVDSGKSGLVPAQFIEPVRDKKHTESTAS

T2: Boi1, P38041
T2 sequence (P38041 1-86, looked up): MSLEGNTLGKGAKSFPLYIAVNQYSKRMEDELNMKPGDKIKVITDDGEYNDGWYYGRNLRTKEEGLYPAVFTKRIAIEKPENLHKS

T3: Bzz1-1, P38822
T3 sequence (P38822 478-572, looked up): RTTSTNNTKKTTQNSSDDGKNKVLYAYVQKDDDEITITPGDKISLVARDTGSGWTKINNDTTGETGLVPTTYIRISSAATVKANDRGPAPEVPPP

T4: Cyk3, Q07533
T4 sequence (Q07533 1-83, looked up): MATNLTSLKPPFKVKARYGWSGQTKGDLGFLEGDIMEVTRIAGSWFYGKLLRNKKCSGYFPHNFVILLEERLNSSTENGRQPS

T5: Boi2, P39969
T5 sequence (P39969 32-116, looked up): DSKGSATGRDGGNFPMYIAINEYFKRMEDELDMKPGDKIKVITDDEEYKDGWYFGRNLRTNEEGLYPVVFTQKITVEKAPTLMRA

T6: Sla1-2, P32790
T6 sequence (P32790 60-140, looked up): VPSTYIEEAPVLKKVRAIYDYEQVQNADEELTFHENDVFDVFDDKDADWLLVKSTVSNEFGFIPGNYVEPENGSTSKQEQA

T7: Bud14, P27637
T7 sequence (P27637 247-328, looked up): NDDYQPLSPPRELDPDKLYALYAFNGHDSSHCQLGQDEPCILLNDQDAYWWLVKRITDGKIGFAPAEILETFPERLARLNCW

T8: Pex13, P80667
T8 sequence (P80667 295-386, looked up): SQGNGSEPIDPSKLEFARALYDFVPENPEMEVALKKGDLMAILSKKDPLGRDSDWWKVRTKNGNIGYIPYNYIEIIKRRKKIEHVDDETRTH

T9: Hse1, P38753
T9 sequence (P38753 208-285, looked up): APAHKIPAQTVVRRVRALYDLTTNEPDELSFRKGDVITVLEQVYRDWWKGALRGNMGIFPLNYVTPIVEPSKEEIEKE

T10: Hof1, Q05080
T10 sequence (Q05080 590-669, looked up): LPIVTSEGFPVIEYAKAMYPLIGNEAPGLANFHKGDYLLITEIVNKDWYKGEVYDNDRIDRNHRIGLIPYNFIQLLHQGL

T11: Bzz1-2, P38822
T11 sequence (P38822 568-633, looked up): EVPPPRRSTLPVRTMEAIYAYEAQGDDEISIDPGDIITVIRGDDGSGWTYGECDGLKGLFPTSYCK

T12: Cdc25, P04821
T12 sequence (P04821 50-136, looked up): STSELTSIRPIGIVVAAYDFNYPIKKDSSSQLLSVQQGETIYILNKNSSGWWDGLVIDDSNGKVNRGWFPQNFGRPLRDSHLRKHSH

T13: Lsb1, P53281
T13 sequence (P53281 45-122, looked up): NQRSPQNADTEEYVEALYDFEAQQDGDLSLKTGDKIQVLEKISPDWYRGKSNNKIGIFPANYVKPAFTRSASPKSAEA

T14: Bbc1, P47068
T14 sequence (P47068 1-78, looked up): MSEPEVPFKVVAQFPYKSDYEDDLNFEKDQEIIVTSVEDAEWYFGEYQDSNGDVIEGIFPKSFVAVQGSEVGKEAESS

T15: Abp1, P15891
T15 sequence (P15891 535-592, looked up): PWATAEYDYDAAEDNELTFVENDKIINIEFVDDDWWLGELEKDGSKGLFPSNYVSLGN

T16: Lsb3, P43603
T16 sequence (P43603 385-451, looked up): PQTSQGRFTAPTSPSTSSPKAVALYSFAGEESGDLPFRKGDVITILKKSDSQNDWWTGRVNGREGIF

T17: Nbp2, Q12163
T17 sequence (Q12163 103-180, looked up): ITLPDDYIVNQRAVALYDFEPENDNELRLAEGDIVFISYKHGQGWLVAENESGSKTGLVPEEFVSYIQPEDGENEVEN

T18: Pin3, Q06449
T18 sequence (Q06449 53-122, looked up): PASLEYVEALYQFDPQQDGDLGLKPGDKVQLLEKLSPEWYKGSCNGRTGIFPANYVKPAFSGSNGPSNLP

T19: Fus1, P11710
T19 sequence (P11710 432-512, looked up): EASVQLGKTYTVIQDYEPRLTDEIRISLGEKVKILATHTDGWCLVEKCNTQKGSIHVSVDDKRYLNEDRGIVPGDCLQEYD

T20: Myo5, Q04439
T20 sequence (Q04439 1072-1160, looked up): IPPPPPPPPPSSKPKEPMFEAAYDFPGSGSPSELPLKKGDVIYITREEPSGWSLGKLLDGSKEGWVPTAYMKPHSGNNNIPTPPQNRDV

T21: Lsb4, P32793
T21 sequence (P32793 402-468, looked up): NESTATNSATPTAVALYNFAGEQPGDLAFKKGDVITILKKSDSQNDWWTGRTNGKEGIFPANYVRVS


Key:
Assay in all cases: SPOT array
Sla1-3, P32790 = target: T1, Sla1-3, P32790; settings: median of control spots 5475
Boi1, P38041 = target: T2, Boi1, P38041; settings: median of control spots 1162
Rvs167, P39743 = settings: median of control spots 2707
Chain of Rvs167, P39743 (P39743 419-482): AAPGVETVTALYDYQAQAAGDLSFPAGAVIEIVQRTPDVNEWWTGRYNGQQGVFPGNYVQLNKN

Bzz1-1, P38822 = target: T3, Bzz1-1, P38822; settings: median of control spots 4446
Cyk3, Q07533 = target: T4, Cyk3, Q07533; settings: median of control spots 1451
Boi2, P39969 = target: T5, Boi2, P39969; settings: median of control spots 1161
Sla1-2, P32790 = target: T6, Sla1-2, P32790; settings: median of control spots 712
Bud14, P27637 = target: T7, Bud14, P27637; settings: median of control spots 956
Pex13, P80667 = target: T8, Pex13, P80667; settings: median of control spots 1341
Hse1, P38753 = target: T9, Hse1, P38753; settings: median of control spots 1727
Bem1-1, P29366 = settings: median of control spots 4282
Chain of Bem1-1, P29366 (P29366 55-141): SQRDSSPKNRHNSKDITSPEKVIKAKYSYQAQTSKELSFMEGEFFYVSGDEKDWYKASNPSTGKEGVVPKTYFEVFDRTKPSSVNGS

Bem1-2, P29366 = settings: median of control spots 4347
Chain of Bem1-2, P29366 (P29366 139-227): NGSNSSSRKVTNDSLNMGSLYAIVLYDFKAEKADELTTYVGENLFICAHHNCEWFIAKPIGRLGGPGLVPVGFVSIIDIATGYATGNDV

Hof1, Q05080 = target: T10, Hof1, Q05080; settings: median of control spots 4086
Bzz1-2, P38822 = target: T11, Bzz1-2, P38822; settings: median of control spots 4538
Myo3, P36006 = settings: median of control spots 468
Cdc25, P04821 = target: T12, Cdc25, P04821; settings: median of control spots 969
GST = settings: median of control spots 978
Lsb1, P53281 = target: T13, Lsb1, P53281; settings: median of control spots 388
Bbc1, P47068 = target: T14, Bbc1, P47068; settings: median of control spots 796
Abp1, P15891 = target: T15, Abp1, P15891; settings: median of control spots 935
Lsb3, P43603 = target: T16, Lsb3, P43603; settings: median of control spots 406
Nbp2, Q12163 = target: T17, Nbp2, Q12163; settings: median of control spots 357
Pin3, Q06449 = target: T18, Pin3, Q06449; settings: median of control spots 2171
Fus1, P11710 = target: T19, Fus1, P11710; settings: median of control spots 1200
Myo5, Q04439 = target: T20, Myo5, Q04439; settings: median of control spots 471
Sho1, P40073 = settings: median of control spots 1148
Chain of Sho1, P40073 (P40073 287-367): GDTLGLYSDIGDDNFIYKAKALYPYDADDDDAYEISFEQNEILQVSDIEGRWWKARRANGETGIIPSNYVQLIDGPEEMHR

Lsb4, P32793 = target: T21, Lsb4, P32793; settings: median of control spots 397

Binder | SPOT intensity (Sla1-3, P32790) | SPOT intensity (Boi1, P38041) | SPOT intensity (Rvs167, P39743) | SPOT intensity (Bzz1-1, P38822) | SPOT intensity (Cyk3, Q07533) | SPOT intensity (Boi2, P39969) | SPOT intensity (Sla1-2, P32790) | SPOT intensity (Bud14, P27637) | SPOT intensity (Pex13, P80667) | SPOT intensity (Hse1, P38753) | SPOT intensity (Bem1-1, P29366) | SPOT intensity (Bem1-2, P29366) | SPOT intensity (Hof1, Q05080) | SPOT intensity (Bzz1-2, P38822) | SPOT intensity (Myo3, P36006) | SPOT intensity (Cdc25, P04821) | SPOT intensity (GST) | SPOT intensity (Lsb1, P53281) | SPOT intensity (Bbc1, P47068) | SPOT intensity (Abp1, P15891) | further results
SLSRRRFSLPSMPNV | 388 | 1 | 4 | 3 | 1 | 1 | 2 | 15 | 28 | 97 | 0 | 53 | 77 | 17 | 27 | 35 | 0 | 1050 | 98 | 70 | SPOT intensity (Lsb3, P43603): 4; SPOT intensity (Nbp2, Q12163): 34; SPOT intensity (Pin3, Q06449): 66; SPOT intensity (Fus1, P11710): 27; SPOT intensity (Myo5, Q04439): 4; SPOT intensity (Sho1, P40073): 84; SPOT intensity (Lsb4, P32793): 9
AGKRRLPLVRFKASD | 27 | 16 | 6 | 0 | 9 | 1 | 3 | 28 | 4 | 9 | 2 | 3 | 7 | 2 | 22 | 55 | 4 | 18 | 507 | 262 | SPOT intensity (Lsb3, P43603): 16; SPOT intensity (Nbp2, Q12163): 125; SPOT intensity (Pin3, Q06449): 8; SPOT intensity (Fus1, P11710): 23; SPOT intensity (Myo5, Q04439): 2; SPOT intensity (Sho1, P40073): 260; SPOT intensity (Lsb4, P32793): 18
IKKRNKIRLPSGSPE | 43 | 5 | 4 | 2 | 9 | 3 | 0 | 10 | 2 | 6 | 1 | 0 | 6 | 4 | 7 | 18 | 3 | 104 | 101 | 136 | SPOT intensity (Lsb3, P43603): 0; SPOT intensity (Nbp2, Q12163): 24; SPOT intensity (Pin3, Q06449): 4; SPOT intensity (Fus1, P11710): 52; SPOT intensity (Myo5, Q04439): 0; SPOT intensity (Sho1, P40073): 122; SPOT intensity (Lsb4, P32793): 6
GLRRARYKFPGQQKI | 50 | 3 | 6 | 2 | 0 | 0 | 1 | 9 | 2 | 12 | 0 | 2 | 6 | 1 | 4 | 15 | 3 | 71 | 79 | 47 | SPOT intensity (Lsb3, P43603): 0; SPOT intensity (Nbp2, Q12163): 22; SPOT intensity (Pin3, Q06449): 4; SPOT intensity (Fus1, P11710): 14; SPOT intensity (Myo5, Q04439): 0; SPOT intensity (Sho1, P40073): 69; SPOT intensity (Lsb4, P32793): 2
